Assays:
Grb2 SH2 = Grb2 SH2 (UniProt P62993); assay: SH2 binding enrichment of the phosphorylated peptide, bacterial display (enrichment ratio); higher = better substrate or ligand; peptides without Tyr show the background
SHP2-C SH2 = assay: as above
c-Src SH2 = assay: as above
c-Src = assay: phosphorylation enrichment, bacterial display (enrichment ratio); higher = better substrate or ligand; peptides without Tyr show the background
Fes = Fes (UniProt P07332); assay: as above
FGFR1 = FGFR1 (UniProt P11362); assay: as above
Jak2 = Jak2 (UniProt O60674); assay: as above
c-Abl (mouse) = assay: as above
Fyn = Fyn (UniProt P06241); assay: as above
EPHB1 = EPHB1 (UniProt P54762); assay: as above
FGFR3 = FGFR3 (UniProt P22607); assay: as above
Hck = Hck (UniProt P08631); assay: as above
EPHB2 = EPHB2 (UniProt P29323); assay: as above
Fer (mouse) = assay: as above
MERTK = MERTK (UniProt Q12866); assay: as above
AncSZ = assay: as above
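Wherever SH2 binding enrichment of the phosphorylated peptide, bacterial display is given: peptide library displayed on the E. coli surface as eCPX fusions, selected cells deep-sequenced, score is each peptide's frequency after selection divided by its frequency in the input.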
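Wherever phosphorylation enrichment, bacterial display is given: 11-residue human phosphosite peptides and single-mutation variants displayed on the E. coli surface, counted by deep sequencing, each peptide's frequency after selection divided by its frequency in the unselected input library; frequency after pTyr selection over input frequency; kinase dosed for 20-30% of maximal phosphorylation in three min.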

Sequence of FGFR1 (P11362 whole entry, looked up): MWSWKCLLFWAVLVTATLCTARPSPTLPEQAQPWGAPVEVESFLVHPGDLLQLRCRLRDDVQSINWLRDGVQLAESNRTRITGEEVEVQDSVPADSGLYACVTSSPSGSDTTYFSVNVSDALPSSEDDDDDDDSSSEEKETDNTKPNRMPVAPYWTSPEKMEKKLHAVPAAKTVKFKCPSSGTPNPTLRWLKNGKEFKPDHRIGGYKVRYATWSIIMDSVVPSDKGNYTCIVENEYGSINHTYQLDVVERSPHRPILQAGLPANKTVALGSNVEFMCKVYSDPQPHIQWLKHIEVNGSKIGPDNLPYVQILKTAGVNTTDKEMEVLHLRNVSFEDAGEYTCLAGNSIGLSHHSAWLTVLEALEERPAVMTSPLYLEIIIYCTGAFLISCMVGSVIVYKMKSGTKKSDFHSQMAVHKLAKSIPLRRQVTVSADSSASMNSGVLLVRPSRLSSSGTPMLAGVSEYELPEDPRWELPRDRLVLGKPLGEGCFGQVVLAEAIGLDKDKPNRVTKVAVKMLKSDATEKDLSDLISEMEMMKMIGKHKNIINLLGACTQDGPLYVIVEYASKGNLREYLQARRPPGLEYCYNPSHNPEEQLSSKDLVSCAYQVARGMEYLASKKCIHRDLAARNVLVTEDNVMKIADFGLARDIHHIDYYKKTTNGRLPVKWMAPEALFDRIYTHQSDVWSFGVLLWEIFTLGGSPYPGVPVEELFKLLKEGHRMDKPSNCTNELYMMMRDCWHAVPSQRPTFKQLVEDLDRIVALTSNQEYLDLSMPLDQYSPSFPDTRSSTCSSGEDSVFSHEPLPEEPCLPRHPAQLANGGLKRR
Sequence of FGFR3 (P22607 whole entry, looked up): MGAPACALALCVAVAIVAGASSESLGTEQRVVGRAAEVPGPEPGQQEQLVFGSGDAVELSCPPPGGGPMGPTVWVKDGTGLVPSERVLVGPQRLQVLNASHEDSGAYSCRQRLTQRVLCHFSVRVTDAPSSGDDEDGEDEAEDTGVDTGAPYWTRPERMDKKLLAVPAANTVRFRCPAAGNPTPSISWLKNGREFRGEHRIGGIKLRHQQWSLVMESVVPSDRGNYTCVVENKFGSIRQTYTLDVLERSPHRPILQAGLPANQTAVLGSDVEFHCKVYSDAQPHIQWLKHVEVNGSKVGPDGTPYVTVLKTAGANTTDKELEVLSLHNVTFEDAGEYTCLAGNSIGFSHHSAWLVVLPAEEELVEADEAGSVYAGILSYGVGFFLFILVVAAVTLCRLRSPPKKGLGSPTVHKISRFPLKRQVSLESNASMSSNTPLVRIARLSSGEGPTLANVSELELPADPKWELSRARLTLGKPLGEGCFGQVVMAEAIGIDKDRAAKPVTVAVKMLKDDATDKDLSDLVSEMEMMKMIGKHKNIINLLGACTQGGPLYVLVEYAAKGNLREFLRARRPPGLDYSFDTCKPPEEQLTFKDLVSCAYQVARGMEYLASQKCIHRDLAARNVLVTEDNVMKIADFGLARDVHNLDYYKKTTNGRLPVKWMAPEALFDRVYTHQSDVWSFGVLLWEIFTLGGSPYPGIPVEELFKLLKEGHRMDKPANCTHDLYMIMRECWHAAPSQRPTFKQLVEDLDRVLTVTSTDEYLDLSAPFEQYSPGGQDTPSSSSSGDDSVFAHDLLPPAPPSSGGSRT
Sequence of Grb2 SH2 (P62993 whole entry, looked up): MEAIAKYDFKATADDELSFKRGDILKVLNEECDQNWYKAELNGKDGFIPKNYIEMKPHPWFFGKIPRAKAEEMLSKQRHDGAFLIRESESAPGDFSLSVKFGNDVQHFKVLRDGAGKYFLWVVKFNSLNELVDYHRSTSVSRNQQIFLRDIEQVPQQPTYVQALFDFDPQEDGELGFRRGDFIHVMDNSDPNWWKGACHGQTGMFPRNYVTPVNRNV
Sequence of Hck (P08631 whole entry, looked up): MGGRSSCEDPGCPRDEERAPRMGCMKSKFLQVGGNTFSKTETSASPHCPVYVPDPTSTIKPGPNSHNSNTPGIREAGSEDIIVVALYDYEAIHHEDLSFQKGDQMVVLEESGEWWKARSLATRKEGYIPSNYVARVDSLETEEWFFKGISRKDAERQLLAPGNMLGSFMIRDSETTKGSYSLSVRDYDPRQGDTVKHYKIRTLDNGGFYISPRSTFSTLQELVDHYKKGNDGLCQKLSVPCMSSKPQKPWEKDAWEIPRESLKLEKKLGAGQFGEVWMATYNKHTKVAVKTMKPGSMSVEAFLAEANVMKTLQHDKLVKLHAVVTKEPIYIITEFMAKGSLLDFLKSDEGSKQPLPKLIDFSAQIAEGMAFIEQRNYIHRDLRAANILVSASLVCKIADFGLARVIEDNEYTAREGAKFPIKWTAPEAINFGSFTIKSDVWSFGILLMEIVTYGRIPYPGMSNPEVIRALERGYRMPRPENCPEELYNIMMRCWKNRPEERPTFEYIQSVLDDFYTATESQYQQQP
Sequence of Fes (P07332 whole entry, looked up): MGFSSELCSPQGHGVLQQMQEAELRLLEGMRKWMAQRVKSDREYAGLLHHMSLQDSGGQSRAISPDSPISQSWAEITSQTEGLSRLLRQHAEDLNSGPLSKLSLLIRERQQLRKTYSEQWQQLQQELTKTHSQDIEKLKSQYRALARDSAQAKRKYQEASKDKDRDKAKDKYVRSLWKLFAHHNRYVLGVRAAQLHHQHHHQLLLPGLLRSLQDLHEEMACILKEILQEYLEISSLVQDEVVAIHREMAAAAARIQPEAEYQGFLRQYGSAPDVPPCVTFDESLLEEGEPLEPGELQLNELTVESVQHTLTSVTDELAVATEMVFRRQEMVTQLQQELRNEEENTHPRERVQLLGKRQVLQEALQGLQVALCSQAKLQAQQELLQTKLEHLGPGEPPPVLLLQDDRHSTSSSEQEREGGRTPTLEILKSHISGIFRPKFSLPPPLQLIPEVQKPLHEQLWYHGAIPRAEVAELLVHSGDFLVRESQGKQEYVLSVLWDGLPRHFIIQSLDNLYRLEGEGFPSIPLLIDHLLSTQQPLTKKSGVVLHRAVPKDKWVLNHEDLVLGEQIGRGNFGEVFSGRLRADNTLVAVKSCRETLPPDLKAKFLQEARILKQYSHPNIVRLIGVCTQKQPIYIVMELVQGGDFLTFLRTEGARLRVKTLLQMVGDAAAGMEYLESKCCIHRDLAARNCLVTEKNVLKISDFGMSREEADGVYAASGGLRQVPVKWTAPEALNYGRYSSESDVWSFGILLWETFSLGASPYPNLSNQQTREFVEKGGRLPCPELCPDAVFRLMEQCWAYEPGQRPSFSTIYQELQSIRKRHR
Sequence of MERTK (Q12866 whole entry, looked up): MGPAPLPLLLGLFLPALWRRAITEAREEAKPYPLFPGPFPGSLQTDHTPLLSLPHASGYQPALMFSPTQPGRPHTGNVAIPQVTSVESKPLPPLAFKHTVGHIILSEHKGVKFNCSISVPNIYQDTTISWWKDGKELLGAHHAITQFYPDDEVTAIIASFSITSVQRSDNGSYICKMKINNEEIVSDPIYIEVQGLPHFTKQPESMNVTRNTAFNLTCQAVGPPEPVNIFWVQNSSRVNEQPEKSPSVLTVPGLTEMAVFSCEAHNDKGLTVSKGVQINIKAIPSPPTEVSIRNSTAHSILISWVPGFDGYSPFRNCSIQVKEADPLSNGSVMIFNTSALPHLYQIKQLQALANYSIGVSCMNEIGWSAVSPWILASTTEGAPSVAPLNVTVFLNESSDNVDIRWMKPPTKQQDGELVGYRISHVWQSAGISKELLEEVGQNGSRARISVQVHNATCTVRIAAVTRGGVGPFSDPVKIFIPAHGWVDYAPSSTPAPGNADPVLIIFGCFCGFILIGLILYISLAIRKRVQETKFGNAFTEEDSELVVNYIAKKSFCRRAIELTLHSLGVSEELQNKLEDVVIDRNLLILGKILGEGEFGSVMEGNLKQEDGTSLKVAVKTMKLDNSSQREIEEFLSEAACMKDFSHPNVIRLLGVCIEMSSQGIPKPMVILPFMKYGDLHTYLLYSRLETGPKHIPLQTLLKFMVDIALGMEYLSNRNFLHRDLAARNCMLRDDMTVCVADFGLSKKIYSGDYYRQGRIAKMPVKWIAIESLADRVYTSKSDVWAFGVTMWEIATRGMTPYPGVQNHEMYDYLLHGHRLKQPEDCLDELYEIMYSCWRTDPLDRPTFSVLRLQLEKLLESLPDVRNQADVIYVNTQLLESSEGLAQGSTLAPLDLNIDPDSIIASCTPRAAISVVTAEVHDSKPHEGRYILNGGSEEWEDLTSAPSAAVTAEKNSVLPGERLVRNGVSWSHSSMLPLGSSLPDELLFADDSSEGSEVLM
Sequence of Fyn (P06241 whole entry, looked up): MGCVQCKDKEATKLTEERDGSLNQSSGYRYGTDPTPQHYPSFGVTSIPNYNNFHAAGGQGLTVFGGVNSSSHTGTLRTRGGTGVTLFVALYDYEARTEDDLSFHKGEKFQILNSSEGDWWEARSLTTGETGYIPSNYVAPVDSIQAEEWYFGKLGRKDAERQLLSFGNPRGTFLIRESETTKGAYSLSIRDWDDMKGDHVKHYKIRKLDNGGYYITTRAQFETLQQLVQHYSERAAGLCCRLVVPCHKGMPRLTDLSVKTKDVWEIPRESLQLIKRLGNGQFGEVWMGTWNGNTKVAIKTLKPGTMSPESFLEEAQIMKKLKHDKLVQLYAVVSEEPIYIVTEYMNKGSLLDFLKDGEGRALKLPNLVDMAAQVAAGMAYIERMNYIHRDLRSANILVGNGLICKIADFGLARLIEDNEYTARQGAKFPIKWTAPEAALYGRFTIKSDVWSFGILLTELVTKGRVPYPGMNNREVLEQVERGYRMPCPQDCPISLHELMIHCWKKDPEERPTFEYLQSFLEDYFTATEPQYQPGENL

| Sequence | SH2 binding enrichment (Grb2 SH2) | SH2 binding enrichment (SHP2-C SH2) | SH2 binding enrichment (c-Src SH2) | phosphorylation enrichment (c-Src) | phosphorylation enrichment (Fes) | phosphorylation enrichment (FGFR1) | phosphorylation enrichment (Jak2) | phosphorylation enrichment (c-Abl (mouse)) | phosphorylation enrichment (Fyn) | phosphorylation enrichment (EPHB1) | phosphorylation enrichment (FGFR3) | phosphorylation enrichment (Hck) | phosphorylation enrichment (EPHB2) | phosphorylation enrichment (Fer (mouse)) | phosphorylation enrichment (MERTK) | phosphorylation enrichment (AncSZ) |
| --- | --- | --- | --- | --- | --- | --- | --- | --- | --- | --- | --- | --- | --- | --- | --- | --- |
| IAAEYYDNLPH [DEGS1_Y284] | 0.88 | 0.542 | 1.13 | 0.782 | 1.02 | 7.81 | 0.98 | 0.808 | 0.613 | 0.797 | 5.34 | 2.42 | 0.813 | 0.874 | 0.917 | 1.75 |
| IALSKYGRVKR [FGF6_Y186] | 0.711 | 0.447 | 0.501 | 0.463 | 0.564 | 0.359 | 0.57 | 0.552 | 0.358 | 0.32 | 0.373 | 0.412 | 0.424 | 0.372 | 0.438 | 0.61 |
| IDQDKYAVHFI [FLNA_Y2388_R2391H] | 0.711 | 0.607 | 0.491 | 0.433 | 0.945 | 0.468 | 0.801 | 0.734 | 0.396 | 0.483 | 0.61 | 0.467 | 0.547 | 0.625 | 0.388 | 0.886 |
| IENKPYGMSDP [RET_Y1062_L1061P] | 0.702 | 0.648 | 0.401 | 0.414 | 0.861 | 0.504 | 0.869 | 0.549 | 0.41 | 0.55 | 0.599 | 0.458 | 0.508 | 0.483 | 0.41 | 0.761 |
| IFGVSYDEFRF [CFTR_Y512_YF] | 0.991 | 0.684 | 0.897 | 2.32 | 0.982 | 0.5 | 1.09 | 0.678 | 0.673 | 0.456 | 0.609 | 0.93 | 0.524 | 1.52 | 0.671 | 1.07 |
| IFHLSYHHNCE [PDE6B_Y227_L228H_YF] | 1.14 | 1.16 | 0.873 | 0.455 | 1.18 | 0.499 | 0.831 | 0.588 | 0.522 | 0.567 | 0.694 | 0.478 | 0.635 | 0.517 | 0.381 | 1.15 |
| IGEGTYGQVFK [CDK13_Y716_YF] | 0.774 | 0.808 | 0.426 | 7.69 | 0.665 | 0.324 | 0.569 | 0.566 | 10.8 | 0.62 | 0.402 | 8.97 | 1.18 | 0.636 | 0.428 | 0.456 |
| IGLHAYGDQFR [IDH1_Y135_R132L_YF] | 0.703 | 0.449 | 0.419 | 0.39 | 0.799 | 0.423 | 0.519 | 0.51 | 0.502 | 0.413 | 0.594 | 0.473 | 0.491 | 0.51 | 0.4 | 0.687 |
| IGMIIYFARKA [VCAM1_Y718] | 2.08 | 1.43 | 1.03 | 0.449 | 0.957 | 0.515 | 0.88 | 0.734 | 0.481 | 0.487 | 0.72 | 1.09 | 2.23 | 0.417 | 0.374 | 0.9 |
| IGMLIYFARKA [VCAM1_Y718_I716L] | 1.43 | 1.23 | 0.993 | 0.424 | 0.846 | 0.461 | 0.703 | 0.508 | 0.453 | 0.518 | 0.456 | 0.536 | 0.481 | 0.425 | 0.496 | 0.934 |
| IHFAIYLLKYS [ARMC9_Y107] | 1.44 | 0.955 | 0.726 | 0.446 | 1.16 | 0.368 | 0.917 | 0.753 | 0.516 | 0.486 | 0.686 | 0.463 | 0.59 | 0.486 | 0.425 | 1.09 |
| IINENYDYLKG [NUP98_Y1664] | 0.751 | 0.812 | 0.728 | 0.469 | 0.871 | 0.535 | 0.803 | 0.649 | 0.406 | 0.657 | 0.518 | 1.07 | 0.707 | 0.401 | 0.491 | 0.846 |
| IITDYYVDMKF [MPP4_Y567_V562I] | 0.8 | 0.803 | 1.11 | 0.98 | 1.46 | 7.4 | 2.52 | 0.856 | 1.01 | 3.56 | 5.13 | 1.17 | 2.11 | 1.38 | 1.22 | 1.87 |
| IKGNMYFENSF [EGFR_Y112_R108K_YF] | 0.932 | 0.784 | 0.619 | 0.657 | 0.951 | 0.516 | 1.02 | 0.897 | 0.533 | 0.589 | 0.677 | 0.397 | 0.446 | 0.471 | 0.539 | 0.991 |
| IKNSGYISQFL [EIF2AK3_Y585_R588Q_YF] | 0.908 | 0.878 | 0.573 | 0.385 | 0.579 | 0.445 | 0.404 | 0.625 | 0.531 | 0.434 | 0.474 | 0.458 | 0.458 | 0.377 | 0.327 | 0.531 |
| IKRIAYEFVEM [ADA_Y84] | 0.729 | 0.691 | 0.973 | 0.383 | 0.837 | 0.564 | 0.701 | 0.599 | 0.438 | 0.387 | 0.58 | 0.414 | 0.478 | 2.96 | 0.388 | 0.85 |
